In the supplement of paper PMC9876800:

Test system: peptide library, one residue held at a place counted from the S/T acceptor
Assay: relative phosphorylation of the sub-library (ratio to the mean residue at this position); higher = residue favoured
Outline: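 Relative sub-library phosphorylation is a ratio to the mean residue at the same position. Purified recombinant kinases were incubated under kinase-specific conditions with biotinylated degenerate peptide sub-libraries, each fixing one residue at one position around a central Ser/Thr, using 50 μM peptide and 50 μM ATP spiked with γ-32P-ATP for 90 min. Spots captured on streptavidin membranes were phosphorimaged and quantified by densitometry.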

PRKACA, construct: Full length, human (from UniProt P17612)
relative phosphorylation
Details | at +1 | at +2 | at +3 | at +4 | at -1 | at -2 | at -3 | at -4 | at -5
A fixed | 0.926 | 1.32 | 0.946 | 0.869 | 0.966 | 0.373 | 0.581 | 1.11 | 1.08
D fixed | 0.659 | 1.28 | 1.04 | 1.17 | 0.57 | 0.148 | 0.148 | 0.696 | 0.581
E fixed | 0.547 | 0.718 | 0.99 | 1.26 | 0.468 | 0.122 | 0.159 | 0.757 | 0.606
F fixed | 1.33 | 1.06 | 0.999 | 0.813 | 0.713 | 0.19 | 0.197 | 0.637 | 0.996
G fixed | 0.81 | 1.09 | 1.06 | 1.1 | 1.26 | 0.308 | 0.503 | 1.24 | 1.19
H fixed | 0.909 | 1.75 | 1.32 | 1.13 | 1.29 | 0.538 | 1.14 | 1.07 | 1.16
I fixed | 1.33 | 0.697 | 0.625 | 0.91 | 0.334 | 0.147 | 0.152 | 0.606 | 0.671
K fixed | 1.06 | 0.686 | 0.888 | 0.791 | 1.84 | 3.87 | 2.61 | 1.93 | 1.86
L fixed | 1.41 | 0.719 | 0.919 | 0.885 | 0.874 | 0.227 | 0.152 | 0.751 | 0.715
M fixed | 1.2 | 0.772 | 0.774 | 0.898 | 1.07 | 0.198 | 0.192 | 0.837 | 0.748
N fixed | 0.887 | 1.05 | 1.11 | 1.11 | 1.34 | 0.299 | 0.305 | 0.839 | 0.894
P fixed | 0.293 | 1.03 | 1.43 | 1.52 | 1.27 | 0.197 | 0.63 | 0.941 | 0.898
Q fixed | 1.03 | 1.15 | 1.01 | 1.07 | 0.951 | 0.563 | 0.644 | 0.982 | 0.783
R fixed | 1.04 | 0.818 | 1.04 | 0.971 | 1.76 | 9.26 | 8.72 | 2.43 | 2.05
V fixed | 1.33 | 0.953 | 0.696 | 0.779 | 0.468 | 0.155 | 0.179 | 0.631 | 0.744
W fixed | 1.27 | 0.905 | 1.16 | 0.999 | 0.775 | 0.208 | 0.324 | 0.772 | 1.13
Y fixed | 0.967 | 0.992 | 1 | 0.732 | 1.04 | 0.199 | 0.373 | 0.771 | 0.892
pThr fixed | 0.891 | 0.743 | 0.951 | 1.62 | 0.312 | 0.225 | 0.261 | 0.625 | 0.644
pTyr fixed | 0.993 | 1.03 | 1.14 | 1.42 | 0.798 | 0.214 | 0.283 | 0.742 | 0.703

PRKCH, construct: Full length, human (from UniProt P24723)
relative phosphorylation
Details | at +1 | at +2 | at +3 | at +4 | at -1 | at -2 | at -3 | at -4 | at -5
A fixed | 0.536 | 0.49 | 0.738 | 0.933 | 1.07 | 0.893 | 0.78 | 1.1 | 1.19
D fixed | 0.187 | 0.163 | 0.449 | 0.528 | 0.548 | 0.496 | 0.423 | 0.718 | 0.638
E fixed | 0.282 | 0.15 | 0.547 | 0.496 | 0.55 | 0.467 | 0.469 | 0.799 | 0.721
F fixed | 1.78 | 0.68 | 0.858 | 0.658 | 0.632 | 0.721 | 0.813 | 0.773 | 1.23
G fixed | 0.374 | 0.299 | 1.06 | 0.926 | 1.42 | 1.13 | 0.776 | 1.12 | 0.955
H fixed | 0.661 | 1.39 | 1.28 | 1.45 | 0.981 | 1.24 | 1.39 | 1.15 | 1.12
I fixed | 1.47 | 0.622 | 0.754 | 0.632 | 0.397 | 0.405 | 0.444 | 0.614 | 0.818
K fixed | 1.86 | 3.28 | 2.09 | 2.44 | 1.98 | 1.9 | 1.88 | 1.72 | 1.53
L fixed | 1.19 | 0.561 | 0.883 | 0.64 | 0.733 | 0.438 | 0.551 | 0.66 | 0.852
M fixed | 1.43 | 0.745 | 0.785 | 0.708 | 0.929 | 0.592 | 0.695 | 0.869 | 0.722
N fixed | 0.548 | 0.668 | 0.974 | 1.04 | 1.36 | 1.32 | 0.995 | 1.06 | 0.97
P fixed | 0.286 | 0.212 | 0.554 | 1.11 | 1.11 | 0.736 | 0.821 | 1.05 | 0.798
Q fixed | 1.12 | 0.583 | 0.839 | 0.986 | 0.999 | 1.28 | 0.842 | 0.927 | 0.878
R fixed | 2.06 | 4.08 | 2.24 | 1.99 | 2.16 | 3.2 | 4.05 | 1.67 | 1.75
V fixed | 1.31 | 0.596 | 0.754 | 0.715 | 0.593 | 0.447 | 0.466 | 0.716 | 0.847
W fixed | 0.831 | 0.669 | 1.05 | 1 | 0.61 | 1.02 | 0.786 | 1.18 | 1.12
Y fixed | 1.07 | 1.81 | 1.16 | 0.753 | 0.94 | 0.696 | 0.824 | 0.878 | 0.857
pThr fixed | 0.833 | 0.36 | 0.641 | 0.773 | 0.411 | 0.691 | 0.644 | 0.881 | 0.699
pTyr fixed | 0.574 | 0.268 | 0.811 | 0.593 | 0.751 | 0.641 | 0.847 | 0.869 | 1.09
